± gives the standard deviation of the averaged measurements.

To fix the notation:
B1: library; numbered along this chain (parent)
chain: MAELLLGVNIDHIATLRNARGTAYPDPVQAAFIAEQAGADGITVHLREDRRHITDRDVRILRQTLDTRMNLEMAVTEEMLAIAVETKPHFCCLVPEKRQEVTTEGGLDVAGQRDKMRDACKRLADAGIQVSLFIDADEEQIKAAAEVGAPFIEIHTGCYADAKTDAEQAQELARIAKAATFAASLGLKVNAGHGLTYHNVKAIAAIPEMHELNIGHAIIGRAVMTGLKDAVAEMKRLMLEARG

Variants of B1 are the subject of the data set. Put plainly: pyridoxine titer in culture supernatant of strain expressing the PdxJ variant; higher = more PN produced (higher in vivo pathway activity of the PdxJ variant). To be noted: host strain: E. coli LL006; 48 h; temperature: 37 °C; FM1.4. The method, then: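 Rosetta-designed single to quadruple mutants of E. coli PdxJ (PNP synthase) were expressed from pRSFDuet-1 in the engineered chassis E. coli LL006 (MG1655 ΔpdxH::pdxST, pta::Eme_pdxP). Strains were grown in 24 deep-well plates in 2 mL FM1.4 glycerol medium at 37 °C and 800 rpm for 48 h. Extracellular pyridoxine (PN) titer was quantified by HPLC with fluorescence detection; two biological replicates, with the WT pdxJ strain (LL137, about 0.5 mg/L) as control.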
Consider MAELLLGVNIDHIATLRNARMTAYPDPVQAAFIAEQAGADGITIHLREDRRHITDRDVRILRQTLDTRMNLEMAVTEEMLAIAVETKPHFCCLVPEKRQEVTTEGGLDVAGQRDKMRDACKRLADAGIQVSLFIDADEEQIKAAAEVGAPFIEIHTGCYADAKTDAEQAQELARIAKAATFAASLGLKVNAGHGLCYHNVKAIAAIPEMHELNIGHAIIGRAVMTGLKDAVAEMKRLMLEARG [G21M V44I T196C], for which the pyridoxine titer is 1.94 ± 0.23 mg/L.
With MAELLLGVNICHIATLRNARGTAYPDPVQAAFIAEQAGADGITVHLREDRRHITDRDVRILRQTLDTRMNLEMAVTEEMLAIAVETKPHFCCLVPEKRQEVTTEGGLDVAGQRDKMRDACKRLADAGIQVSLFIDADEEQIKAAAEVGAPFIEIHTGCYADAKTDAEQAQELARIAKAATFAASLGLKVNAGHGLCYHNVKAIAAIPEMHELNIGHAIIGRAVMTGLKDAVAEMKRLMLEARG [D11C T196C] the figure was 0.43 ± 0.028 mg/L; with MAELLLGVNLDHIATLRNARGTAYPDPVQAAFIAEQAGADGITVHLREDRRHITDRDVRILRQTLDTRMNLEMAVTEEMLAIAVETKPHFCCLVPEKRQELTTTGGLDVAGQRDKMRDACKRLADAGIQVSLFIDADEEQIKAAAEVGAPFIEIHTGCYADAKTDAEQAQELARIAKAATFAASLGLKVNAGHGLVYHNVKAIAAIPEMHELNIGHAIIGRAVMTGLKDAVAEMKRLMLEARG [I10L V101L E104T T196V], 6.81 ± 0.15 mg/L; with MAELLLGVNLDHIATLRNARGVAYPDPVQAAFIAEQAGADGITVHLREDRRHITDRDVRILRQTLDTRMNLEMAVTEEMLAIAVETKPHFCCLVPEKRQEVTTTGGLDVAGQRDKMRDACKRLADAGIQVSLFIDADEEQIKAAAEVGAPFIEINTGCYADAKTDAEQAQELARIAKAATFAASLGLKVNAGHGLTYHNVKAIAAIPEMHELNIGHAIIGRAVMTGLKDAVAEMKRLMLEARG [I10L T22V E104T H155N], 2.5 ± 0.35 mg/L.
For MAELLLGVNIDHIATLRNQRGTAYPDPVQAAFIAEQAGADGITVHLREDRRHITDRDVRILRQTLDTRMNLEMAVTEEMLAIAVETKPHFCCLVPEKRQEVTTEGGLDVAGQRDKMRDACKRLADAGIQVSLFIDADEEQIKAAAEVGAPFIEIHTGCYADAKTDAEQAQELARIAKAATFAASLGLKVNAGHGLTYHNVKAIAAIPEMHELNIGHAIIGRAVMTGLKDAVAEMKRLMLEARG [A19Q], the pyridoxine titer is 1.02 ± 0.045 mg/L.
With MAELLLGVNLDLIATLRNARGTAYPDPVQAAFIAEQAGADGITVHLREDRRHITDRDVRILRQTLDTRMNLEMAVTEEMLAIAVETKPHFCCLVPEKRQEVTLEGGLDVAGQRDKMRDACKRLADAGIQVSLFIDADEEQIKAAAEVGAPFIEIHTGCYADAKTDAEQAQELARIAKAATFAASLGLKVNAGHGLTYHNVKAIAAIPEMHELNIGHAIIGRAVMTGLKDAVAEMKRLMLEARG [I10L H12L T103L] the figure was 0.18 ± 0.028 mg/L; with MAELLLGVNIDHIATLRNARGTAYPDPVQAAFIAEQAGADGITVHLREDRRHITDRDVRILRQTLDTRMNLEMAVTEEMLAIAVETKPHFCCLVPEKRQEVTLEGGLDVAGQRDKMRDACKRLADAGIQVSLFIDADEEQIKAAAEVGAPFIEIHTGCYADAKTDAEQAQELARIAKAATFAASLGLKVNAGHGLTYHNVKAIAAIPEMHEINIGHVIIGRAVMTGLKDAVAEMKRLMLEARG [T103L L212I A217V], 0.903 ± 0.052 mg/L.
As for MAELLLGVNIDMIATLRNARGTAYPDPVQAAFIAEQAGADGITVHLREDRRHITDRDVRILRQTLDTRMNLEMAVTEEMLAIAVETKPHFCCLVPEKRQEVTTEGGLDVAGQRDKMRDACKRLADAGIQVSLFIDADEEQIKAAAEVGAPFIEIHTGCYADAKTDAEQAQELARIAKAATFAASLGLKVNAGHGLTYHNVKAIAAIPEMHELNIGHAIIGRAVMTGLKDAVAEMKRLMLEARG [H12M], the figure is 1.79 ± 0.07 mg/L; as for MAELLLGVNIDHIATLRNARGTAYPDPVQAAFIAEQAGADGITVHLREDRRHITDRDVRILRQTLDTRMNLEMAVTEEMLAIAVETKPHFCCLVPEKRQEVTTTGGLDVAGQRDKMRDACKRLADAGIQVSLFIDADEEQIKAAAEVGAPFIEIHTGCYADAKTDAEQAQELARIAKAATFAASLGLKVNAGHGLTYHNVKAIAAIPEMHELNIGHAIIGRAVMTGLKDAVAEMKRLMLEARG [E104T], 0.334 ± 0.033 mg/L.
As for MAELLLGVNLDHIATLRNARGVTYPDPVQAAFIAEQAGADGITVHLREDRRHITDRDVRILRQTLDTRMNLEMAVTEEMLAIAVETKPHFCCLVPEKRQEVTTEGGLDVAGQRDKMRDACKRLADAGIQVSLFIDADEEQIKAAAEVGAPFIEIHTGCYADAKTDAEQAQELARIAKAATFAASLGLKVNAGHQLTYHNVKAIAAIPEMHELNIGHAIIGRAVMTGLKDAVAEMKRLMLEARG [I10L T22V A23T G194Q], the pyridoxine titer was 0.91 ± 0.11 mg/L.
With MAELLLGVNIDHVATLRNARGTAYPDPVQAAFIAEQAGADGITVHLREDRRHITDRDVRILRQTLDTRMNLEMAVTEEMLAIAVETKPHFCCLVPEKRQEVTTTGGLDVAGQRDKMRDACKRLADAGIQVSLFIDADEEQIKAAAEVGAPFIEIHTGCYADAKTDAEQAQELARIAKAATFAASLGLKVNAGHQLCYHNVKAIAAIPEMHELNIGHAIIGRAVMTGLKDAVAEMKRLMLEARG [I13V E104T G194Q T196C] the figure was 0.3065 ± 0.0012 mg/L; with MAELLLGVNIDHIATLRNARGTAIPDPVQAAFIAEQAGADGITVHLREDRRHITDRDVRILRQTLDTRMNLEMAVTEEMLAIAVETKPHFCCLVPEKRQEVTTEGGLDVAGQRDKMRDACKRLADAGIQVSLFIDADEEQIKAAAEVGAPFIEIHTGCYADAKTDAEQAQELARIAKAATFAASLGLKVNAGHGLTYHNVKAIAAIPEMHELNIGHAIGGRAVMTGLKDAVAEMKRLMLEARG [Y24I I219G], 0.95 ± 0.23 mg/L.

The values are drawn from the supplement of paper PMC10471632, “Protein engineering and iterative multimodule optimization for vitamin B6 production in Escherichia coli” (Nature Communications, 2023).
